Data reported in patent US20150017095A1 (AbbVie / Abbott, published 2015).

How the values were obtained:
Recombinant Human VEGF [1] = biological target: T1, Recombinant Human VEGF (human, UniProt P15692-4 27-191); assay: direct bind ELISA, antigen coated on plate (N-terminal VD)
T1 construct: also called VEGF165
Experimental: (§1) Enzyme Linked Immunosorbent Assays to screen for antibodies that bind a desired target antigen were performed as follows. High bind ELISA plates (Corning Costar #3369, Acton, Mass.) were coated with 100 μL/well of 10 μg/ml of desired target antigen (R&D Systems, Minneapolis, Minn.) or desired target antigen extra-cellular domain/FC fusion protein (R&D Systems, Minneapolis, Minn.) or monoclonal mouse anti-polyHistidine antibody (R&D Systems # MAB050, Minneapolis, Minn.) in phosphate buffered saline (10×PBS, Abbott Bioresearch Center, Media Prep# MPS-073, Worcester, Mass.) overnight at 4° C. Plates were washed four times with PBS containing 0.02% Tween 20. Plates were blocked by the addition of 300 μL/well blocking solution (non-fat dry milk powder, various retail suppliers, diluted to 2% in PBS) for ½ hour at room temperature. Plates were washed four times after blocking with PBS containing 0.02% Tween 20.
(§2) Plates were washed 4 times with PBS containing 0.02% Tween 20.
(§3) One hundred microliters of enhanced TMB solution (Neogen Corp. #308177, K Blue, Lexington, Ky.) was added to each well and incubated for 10 minutes at room temperature. The reaction was stopped by the addition of 50 μL 1N sulphuric acid.

Recombinant Human VEGF [2] = biological target: T1, Recombinant Human VEGF; assay: BIACORE SPR, DVD-Ig captured, antigen in flow (N-terminal VD)
Experimental: (§4) The BIACORE assay (Biacore, Inc, Piscataway, N.J.) determines the affinity of antibodies or DVD-Ig with kinetic measurements of on-rate and off-rate constants. […] All chemicals are obtained from Biacore® AB (Uppsala, Sweden) or otherwise from a different source as described in the text. For example, approximately 5000 RU of goat anti-mouse IgG, (Fcγ), fragment specific polyclonal antibody (Pierce Biotechnology Inc, Rockford, Ill.) diluted in 10 mM sodium acetate (pH 4.5) is directly immobilized across a CM5 research grade biosensor chip using a standard amine coupling kit according to manufacturer's instructions and procedures at 25 μg/ml. Unreacted moieties on the biosensor surface are blocked with ethanolamine. Modified carboxymethyl dextran surface in flowcell 2 and 4 is used as a reaction surface. Unmodified carboxymethyl dextran without goat anti-mouse IgG in flow cell 1 and 3 is used as the reference surface. For kinetic analysis, rate equations derived from the 1:1 Langmuir binding model are fitted simultaneously to association and dissociation phases of all eight injections (using global fit analysis) with the use of Biaevaluation 4.0.1 software. Purified antibodies or DVD-Ig are diluted in HEPES-buffered saline for capture across goat anti-mouse IgG specific reaction surfaces. Antibodies or DVD-Ig to be captured as a ligand (25 μg/m) are injected over reaction matrices at a flow rate of 5 μl/min. The association and dissociation rate constants, kₒₙ (M⁻¹s⁻¹) and koff (s⁻¹) are determined under a continuous flow rate of 25 μl/min. Rate constants are derived by making kinetic binding measurements at different antigen concentrations ranging from 10-200 nM. The equilibrium dissociation constant (M) of the reaction between antibodies or DVD-Igs and the target antigen is then calculated from the kinetic rate constants by the following formula: KD=koff/kₒₙ. Binding is recorded as a function of time and kinetic rate constants are calculated.

Recombinant Human VEGF [3] = biological target: T1, Recombinant Human VEGF; assay: direct bind ELISA, antigen coated on plate (C-terminal VD)
Experimental: as §1, §2, §3

Recombinant Human VEGF [4] = biological target: T1, Recombinant Human VEGF; assay: BIACORE SPR, DVD-Ig captured, antigen in flow (C-terminal VD)
Experimental: as §4

Recombinant Human IL-17 [5] = biological target: T2, Recombinant Human IL-17 (human, UniProt Q16552 20-155, limits assumed); assay: cell-based or functional assay
Recombinant Human IL-17 [6] = biological target: T2, Recombinant Human IL-17; assay: direct bind ELISA, antigen coated on plate (C-terminal VD)
Experimental: as §1, §2, §3

Recombinant Human IL-17 [7] = biological target: T2, Recombinant Human IL-17; assay: BIACORE SPR, DVD-Ig captured, antigen in flow (C-terminal VD)
Experimental: as §4

Recombinant Human IL-1β [8] = biological target: T3, Recombinant Human IL-1β (human, UniProt P01584 117-269); assay: cell-based or functional assay
Recombinant Human IL-1β [9] = biological target: T3, Recombinant Human IL-1β; assay: direct bind ELISA, antigen coated on plate (N-terminal VD)
Experimental: as §1, §2, §3

Recombinant Human IL-1β [10] = biological target: T3, Recombinant Human IL-1β; assay: BIACORE SPR, DVD-Ig captured, antigen in flow (N-terminal VD)
Experimental: as §4

T2 sequence (Q16552 20-155 limits assumed): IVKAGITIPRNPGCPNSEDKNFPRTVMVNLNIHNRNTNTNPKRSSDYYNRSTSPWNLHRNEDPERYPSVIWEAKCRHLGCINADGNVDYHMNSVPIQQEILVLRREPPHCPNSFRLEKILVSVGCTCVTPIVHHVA
T1 sequence (P15692 other isoform, or with tags, fused parts or gaps limits assumed): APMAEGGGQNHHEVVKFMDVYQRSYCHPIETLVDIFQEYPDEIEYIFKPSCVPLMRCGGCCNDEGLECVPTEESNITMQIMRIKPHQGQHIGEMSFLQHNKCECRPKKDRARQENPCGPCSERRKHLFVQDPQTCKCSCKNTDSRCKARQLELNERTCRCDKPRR

B1: DVD162 (VEGF / PGE2 DVD-Ig) (bispecific antibody)
VH: EVQLVESGGGLVQPGGSLRLSCAASGYTFTNYGMNWVRQAPGKGLEWVGWINTYTGEPTYAADFKRRFTFSLDTSKSTAYLQMNSLRAEDTAVYYCAKYPHYYGSSHWYFDVWGQGTLVTVSSASTKGPEVQLVQSGAEVKKPGASVKVSCKASGYTFTKYWLGWVRQAPGQGLEWMGDIYPGYDYTHYNEKFKDRVTLTTDTSTSTAYMELRSLRSDDTAVYYCARSDGSSTYWGQGTLVTVSS
VL: DIQMTQSPSSLSASVGDRVTITCSASQDISNYLNWYQQKPGKAPKVLIYFTSSLHSGVPSRFSGSGSGTDFTLTISSLQPEDFATYYCQQYSTVPWTFGQGTKVEIKRTVAAPDVLMTQTPLSLPVTPGEPASISCTSSQNIVHSNGNTYLEWYLQKPGQSPQLLIYKVSNRFSGVPDRFSGSGSGTDFTLKISRVEAEDVGVYYCFQVSHVPYTFGGGTKVEIKR
notes: Outer domain is AB014 (VEGF), inner domain is AB048 (PGE2); also called VD162H; VD162L
What does the source list for B1?
EC50 (Recombinant Human VEGF [1]): 1.79 nM; Kd (Recombinant Human VEGF [2]): 0.266 nM; koff (Recombinant Human VEGF [2]): 0.000131 s⁻¹; kon (Recombinant Human VEGF [2]): 490000 M⁻¹ s⁻¹

B2: DVD161 (PGE2 / VEGF DVD-Ig) (bispecific antibody)
VH: EVQLVQSGAEVKKPGASVKVSCKASGYTFTKYWLGWVRQAPGQGLEWMGDIYPGYDYTHYNEKFKDRVTLTTDTSTSTAYMELRSLRSDDTAVYYCARSDGSSTYWGQGTLVTVSSASTKGPEVQLVESGGGLVQPGGSLRLSCAASGYTFTNYGMNWVRQAPGKGLEWVGWINTYTGEPTYAADFKRRFTFSLDTSKSTAYLQMNSLRAEDTAVYYCAKYPHYYGSSHWYFDVWGQGTLVTVSS
VL: DVLMTQTPLSLPVTPGEPASISCTSSQNIVHSNGNTYLEWYLQKPGQSPQLLIYKVSNRFSGVPDRFSGSGSGTDFTLKISRVEAEDVGVYYCFQVSHVPYTFGGGTKVEIKRTVAAPDIQMTQSPSSLSASVGDRVTITCSASQDISNYLNWYQQKPGKAPKVLIYFTSSLHSGVPSRFSGSGSGTDFTLTISSLQPEDFATYYCQQYSTVPWTFGQGTKVEIKR
notes: Outer domain is AB048 (PGE2), inner domain is AB014 (VEGF); also called VD161H; VD161L
For B2, which EC50 (Recombinant Human VEGF [3]) is on record?
Its EC50 is 391 nM.

What about the Kd (Recombinant Human VEGF [4]) of the same binder?
Its Kd is 0.755 nM.

And the koff (Recombinant Human VEGF [4])?
Its koff is 0.000209 s⁻¹.

And the kon (Recombinant Human VEGF [4])?
The kon was 277000 M⁻¹ s⁻¹.

B3: DVD155 (PGE2 / IL-17A DVD-Ig) (bispecific antibody)
VH: EVQLVQSGAEVKKPGASVKVSCKASGYTFTKYWLGWVRQAPGQGLEWMGDIYPGYDYTHYNEKFKDRVTLTTDTSTSTAYMELRSLRSDDTAVYYCARSDGSSTYWGQGTLVTVSSASTKGPEVQLVESGGGLVQPGGSLRLSCAASGFTFSNYWMNWVRQAPGKGLEWVAAINQDGSEKYYVGSVKGRFTISRDNAKNSLYLQMNSLRVEDTAVYYCVRDYYDILTDYYIHYWYFDLWGRGTLVTVSS
VL: not shown
notes: Outer domain is AB048 (PGE2), inner domain is AB029 (IL-17A); also called VD155H; VD155L
What does the source list for B3?
C-terminal VD IL-17 Neutralization Assay EC50 nM (IL-6 secretion by HS27 cells) (Recombinant Human IL-17 [5]): 5.7e-05 nM; EC50 (Recombinant Human IL-17 [6]): 248 nM; Kd (Recombinant Human IL-17 [7]): 3.37 nM; koff (Recombinant Human IL-17 [7]): 0.000125 s⁻¹; kon (Recombinant Human IL-17 [7]): 37000 M⁻¹ s⁻¹

B4: DVD158 (IL-1b / PGE2 DVD-Ig) (bispecific antibody)
VH: QVQLVESGGGVVQPGRSLRLSCAASGFTFSVYGMNWVRQAPGKGLEWVAIIWYDGDNQYYADSVKGRFTISRDNSKNTLYLQMNGLRAEDTAVYYCARDLRTGPFDYWGQGTLVTVSSASTKGPEVQLVQSGAEVKKPGASVKVSCKASGYTFTKYWLGWVRQAPGQGLEWMGDIYPGYDYTHYNEKFKDRVTLTTDTSTSTAYMELRSLRSDDTAVYYCARSDGSSTYWGQGTLVTVSS
VL: EIVLTQSPDFQSVTPKEKVTITCRASQSIGSSLHWYQQKPDQSPKLLIKYASQSFSGVPSRFSGSGSGTDFTLTINSLEAEDAAAYYCHQSSSLPFTFGPGTKVDIKRTVAAPDVLMTQTPLSLPVTPGEPASISCTSSQNIVHSNGNTYLEWYLQKPGQSPQLLIYKVSNRFSGVPDRFSGSGSGTDFTLKISRVEAEDVGVYYCFQVSHVPYTFGGGTKVEIKR
notes: Outer domain is AB032 (IL-1b), inner domain is AB048 (PGE2); also called VD158H; VD158L
B4 was tested. Which “N-terminal VD IL-1β Neutralization Assay EC50 nM (IL-8 release by MRC5 cells)” value (Recombinant Human IL-1β [8]) did it give?
Its value is 0.11 nM.

What about the EC50 (Recombinant Human IL-1β [9]) of the same binder?
The EC50 was 17.6 nM.

And the Kd (Recombinant Human IL-1β [10])?
The Kd was 0.0387 nM.

What about the koff (Recombinant Human IL-1β [10]) of the same binder?
Its koff is 3.84e-05 s⁻¹.

And the kon (Recombinant Human IL-1β [10])?
Its kon is 992000 M⁻¹ s⁻¹.
